What was measured:
human liver cancer Huh-7 = assay: subcutaneous transplanted tumors of human liver cancer Huh-7 in nude mice; assay type: in vivo; settings: for % T/C D 17 / Mean tumor volume D 17 SEM / Tumor inhibition rate % D 17 / Mean tumor volume D 0 SEM: D 0, 3, 7, 10, 14; for Mean tumor volume D 0 SEM: baseline at grouping
Procedure: (§1) The indicators of tumor inhibition experiments in mice were to investigate the effect of drugs on tumor growth, and the specific indicators were T/C % or the rate of tumor growth inhibition TGI (%).
(§2) The diameter of the tumor was measured with a vernier caliper twice a week, and the formula for calculating the tumor volume (V) was: V=½xaxb^2, wherein a and b represented the length and width, respectively.
(§3) T/C(%)=(T−T0)/(C−C0)×100,
(§4) If a tumor was smaller than the initial volume, i.e., T<T0 or C<C0, it was defined as partial regression (PR) of the tumor; if a tumor disappeared completely, it was defined as complete regression (CR) of the tumor.
(§5) At the end of the experiment (e.g., D21), reaching the experimental endpoint, or the tumor volume reached 1,500 mm^3, the animals were sacrificed after CO2 anesthesia, and then the tumors were dissected and photographed.
Nude mice were subcutaneously inoculated with 6×10^6 human liver cancer Huh-7 cells. After the tumor grew to 100-150 mm^3, the animals were grouped according to tumor volume (D0). Mice were administered subcutaneously (SC) or intravenously (IV), twice a week (BIW); the administration volume was 10 mL/kg; the solvent group was administered with the same volume of “solvent” (normal saline); specific dosage and administration regimen were shown in Table 2. The tumor volumes were measured twice a week, the mice were weighed, and the data were recorded.
(§6) Two-tailed Student's t-test was used to compare tumor volumes between the two groups, and P<0.05 was defined as a statistically significant difference.

[1] = tested on: human gastric cancer NCI-N87; assay: subcutaneous transplanted tumors of human gastric cancer NCI-N87 in nude mice; assay type: in vivo; settings: D 0, 3, 7, 10, 14, 17; for Mean tumor volume D 0 SEM: baseline at grouping
Procedure: as §1, §2, §3, §4, §5
Nude mice were subcutaneously (SC) inoculated with 6×10^6 human gastric cancer NCI-N87 cells. After the tumor grew to 100-150 mm^3, the animals were grouped according to tumor volume (D0). Mice were administered subcutaneously (SC) or intravenously (IV), twice a week (BIW); the administration volume was 10 mL/kg; the solvent group was administered with the same volume of “solvent” (normal saline); specific dosage and administration regimen were shown in Table 1. The tumor volumes were measured twice a week, the mice were weighed, and the data were recorded.
as §6

half-life in rats = assay type: in vivo
NCI-H292 = assay: SRB method, proliferation of tumor cells in vitro, NCI-H292; assay type: cell-based; settings: NCI-H292 (Lung cancer), 120 hours of drug action
Procedure: (§7) Sulfonyl rhodamine B protein staining method (SRB method) was used to evaluate the effects of using PEG-interferon alone or in combination with other drugs on the proliferation of tumor cells in vitro.
(§8) A certain number of cells in logarithmic growth phase were seeded in 96-well culture plates. After 24 hours of adherent growth, different concentrations (final concentrations of 1, 3, 10, 30, 100, 300, 1,000, 3,000, 10,000 nM) of drugs were added. After 120 hours of drug action, cells were fixed with trichloroacetic acid. Then stained with SRB solution; finally, Tris solution was added to dissolve SRB, and OD value was measured at a wavelength of 510 nm by a microplate reader.

AGS = assay: SRB method, proliferation of tumor cells in vitro, AGS; assay type: cell-based; settings: AGS (Gastric cancer), 120 hours of drug action
Procedure: as §7, §8

A549 = assay: SRB method, proliferation of tumor cells in vitro, A549; assay type: cell-based; settings: A549 (Lung cancer), 120 hours of drug action
Procedure: as §7, §8

Huh-7 = assay: SRB method, proliferation of tumor cells in vitro, Huh-7; assay type: cell-based, human; settings: Huh-7 (Liver cancer), 120 hours of drug action
Procedure: as §7, §8

[2] = tested on: human breast cancer BT-474; assay: subcutaneous transplanted tumors of human breast cancer BT-474 in nude mice; assay type: in vivo; settings: for % T/C D 20 / Mean tumor volume D 20 SEM / Tumor inhibition rate % D 20 / Mean tumor volume D 0 SEM: D 0, 3, 7, 10, 14, 17; for Mean tumor volume D 0 SEM: baseline at grouping
Procedure: as §1, §2, §3, §4, §5
Nude mice were subcutaneously inoculated with 1×10^7 human breast cancer BT-474 cells. After the tumor grew to 100-150 mm^3, the animals were grouped according to tumor volume (D0). Mice were administered subcutaneously (SC) or intravenously (IV), twice a week (BIW); the administration volume was 10 mL/kg; the solvent group was administered with the same volume of “solvent” (normal saline); specific dosage and administration regimen were shown in Table 3. The tumor volumes were measured twice a week, the mice were weighed, and the data were recorded.
as §6

BT474 = assay: SRB method, proliferation of tumor cells in vitro, BT474; assay type: cell-based, human; settings: BT474 (Breast cancer), 120 hours of drug action
Procedure: as §7, §8
Breast cancer cells BT474 were used, and the corresponding inhibition rate (%) was calculated.

HepG2 = assay: SRB method, proliferation of tumor cells in vitro, HepG2; assay type: cell-based; settings: HepG2 (Liver cancer), 120 hours of drug action
Procedure: as §7, §8

N87 = assay: SRB method, proliferation of tumor cells in vitro, N87; assay type: cell-based, human; settings: N87 (Gastric cancer), 120 hours of drug action
Procedure: as §7, §8

Hep3B = assay: SRB method, proliferation of tumor cells in vitro, Hep3B; assay type: cell-based; settings: Hep3B (Liver cancer), 120 hours of drug action
Procedure: as §7, §8

HGC27 = assay: SRB method, proliferation of tumor cells in vitro, HGC27; assay type: cell-based; settings: HGC27 (Gastric cancer), 120 hours of drug action
Procedure: as §7, §8

MCF-7 = assay: SRB method, proliferation of tumor cells in vitro, MCF-7; assay type: cell-based; settings: MCF-7 (Breast cancer), 120 hours of drug action
Procedure: as §7, §8

HCC1806 = assay: SRB method, proliferation of tumor cells in vitro, HCC1806; assay type: cell-based; settings: HCC1806 (Breast cancer), 120 hours of drug action
Procedure: as §7, §8

[3] = half-life in cynomolgus monkeys; assay type: in vivo
hairy cell leukemia = hairy cell leukemia patients; cited from earlier work
[4] = tested on: metastatic renal cancer and multiple myeloma; settings: high-dose (500 μg/day) injection, patients; cited from earlier work
[5] = specific activity in vitro
[6] = Avastin 10 mg/kg IV (first dose doubled)
[7] = PEGylated (PEG) interferon 0.1 mg/kg SC
[8] = PEGylated (PEG) interferon 1 mg/kg SC
[9] = PEGylated (PEG) interferon 10 mg/kg SC, 2 times a week, 6 times in total, D20
[10] = PEGylated (PEG) interferon 10 mg/kg SC

Molecule: Avastin: Bevacizumab injection, commercially available monoclonal antibody purchased from Roche Pharmaceuticals [reference compound]
- % T/C D 17 (human liver cancer Huh-7; [6]): 60%
- Mean tumor volume D 17 SEM (human liver cancer Huh-7; [6]): 1791.6 ± 105.7 mm^3
- Tumor inhibition rate % D 17 (human liver cancer Huh-7; [6]): 40%
- Mean tumor volume D 0 SEM (human liver cancer Huh-7; [6]): 122.7 ± 1.8 mm^3
- % T/C D 21 [1, 6]: 51%
- Mean tumor volume D 21 SEM [1, 6]: 561.1 ± 53.4 mm^3
- Tumor inhibition rate % D 21 [1, 6]: 49%
- Mean tumor volume D 0 SEM [1, 6]: 115.7 ± 2.7 mm^3

B1: PEGylated (PEG) interferon: recombinant human interferon α1b modified with a single PEG of about 20,000 Daltons; lyophilized powder injection, Shanghai Institute of Biological Products (protein, UniProt P01562 24-189, looked up)
Interferon alpha-1/13: CDLPETHSLDNRRTLMLLAQMSRISPSSCLMDRHDFGFPQEEFDGNQFQKAPAISVLHELIQQIFNLFTTKDSSAAWDEDLLDKFCTELYQQLNDLEACVMQEERVGETPLMNADSILAVKKYFRRITLYLTEKKYSPCAWEVVRAEIMRSLSLSTNLQERLRRKE
modifications: single 20 kDa PEG
notes: recombinant human interferon α1b modified with a single PEG of about 20,000 Daltons; lyophilized powder injection, Shanghai Institute of Biological Products
- half-life (half-life in rats): 13.98 h
- Inhibition rate (%)@100 μg/mL (NCI-H292): 41.5%
- Inhibition rate (%)@100 μg/mL (AGS): 44.0%
- Inhibition rate (%)@100 μg/mL (A549): 33.7%
- Inhibition rate (%)@100 μg/mL (Huh-7): 29.3%
- % T/C D 20 [2, 7]: 34%
- Mean tumor volume D 20 SEM [2, 7]: 422.2 ± 97.0 mm^3
- Tumor inhibition rate % D 20 [2, 7]: 66%
- Mean tumor volume D 0 SEM [2, 7]: 91.2 ± 1.3 mm^3
- tumors regressed partially (PR) ([2]; PEGylated (PEG) interferon 1 mg/kg SC, 2 times a week, 6 times in total, D20): 3/6
- % T/C D 20 [2, 8]: 2%
- Mean tumor volume D 20 SEM [2, 8]: 115.7 ± 26.1 mm^3
- Tumor inhibition rate % D 20 [2, 8]: 98%
- Mean tumor volume D 0 SEM [2, 8]: 94.1 ± 4.3 mm^3
- tumors regressed completely (CR) [2, 9]: 2/6
- tumors regressed partially (PR) [2, 9]: 4/6
- tumors regressed partially (PR) ([2]; PEGylated (PEG) interferon 10 mg/kg SC, 6 times in total, end of the experiment (D60)): 4/6
- % T/C D 20 [2, 10]: −56%
- Mean tumor volume D 20 SEM [2, 10]: 41.4 ± 15.7 mm^3
- Tumor inhibition rate % D 20 [2, 10]: 156%
- Mean tumor volume D 0 SEM [2, 10]: 94.8 ± 4.2 mm^3
- Inhibition rate (%)@100 μg/mL (BT474): 19.6%
- Inhibition rate (%)@100 μg/mL (HepG2): 20.2%
- % T/C D 17 (human liver cancer Huh-7; [7]): 110%
- Mean tumor volume D 17 SEM (human liver cancer Huh-7; [7]): 3188.0 ± 282.5 mm^3
- Tumor inhibition rate % D 17 (human liver cancer Huh-7; [7]): −10%
- Mean tumor volume D 0 SEM (human liver cancer Huh-7; [7]): 117.7 ± 2.0 mm^3
- % T/C D 17 (human liver cancer Huh-7; [8]): 107%
- Mean tumor volume D 17 SEM (human liver cancer Huh-7; [8]): 3110.6 ± 438.0 mm^3
- Tumor inhibition rate % D 17 (human liver cancer Huh-7; [8]): −7%
- Mean tumor volume D 0 SEM (human liver cancer Huh-7; [8]): 119.8 ± 2.6 mm^3
- % T/C D 17 (human liver cancer Huh-7; [10]): 91%
- Mean tumor volume D 17 SEM (human liver cancer Huh-7; [10]): 2681.9 ± 435.7 mm^3
- Tumor inhibition rate % D 17 (human liver cancer Huh-7; [10]): 9%
- Mean tumor volume D 0 SEM (human liver cancer Huh-7; [10]): 123.8 ± 1.9 mm^3
- inhibitory effect on the growth of subcutaneous transplanted tumors (human liver cancer Huh-7; PEGylated (PEG) interferon 0.1, 1, 10 mg/kg, SC, 2 times a week, 5 times in total): no significant inhibitory effect
- Inhibition rate (%)@100 μg/mL (N87): 32.5%
- % T/C D 21 [1, 7]: 81%
- Mean tumor volume D 21 SEM [1, 7]: 817.1 ± 84.9 mm^3
- Tumor inhibition rate % D 21 [1, 7]: 19%
- Mean tumor volume D 0 SEM [1, 7]: 112.7 ± 3.9 mm^3
- % T/C D 21 [1, 8]: 68%
- Mean tumor volume D 21 SEM [1, 8]: 712.4 ± 68.4 mm^3
- Tumor inhibition rate % D 21 [1, 8]: 32%
- Mean tumor volume D 0 SEM [1, 8]: 117.4 ± 2.8 mm^3
- % T/C D 21 [1, 10]: 45%
- Mean tumor volume D 21 SEM [1, 10]: 506.1 ± 33.0 mm^3
- Tumor inhibition rate % D 21 [1, 10]: 55%
- Mean tumor volume D 0 SEM [1, 10]: 112.3 ± 2.3 mm^3
- Inhibition rate (%)@100 μg/mL (Hep3B): 58.4%
- Inhibition rate (%)@100 μg/mL (HGC27): 52.3%
- Inhibition rate (%)@100 μg/mL (MCF-7): 24.2%
- Inhibition rate (%)@100 μg/mL (HCC1806): 32.6%
- half-life [3]: 22.03 ± 3.32 h

B2: ordinary interferon α1b: unmodified recombinant human interferon α1b, 166 amino acids, SEQ ID No.: 1 (protein, UniProt P01562 24-189, looked up)
Interferon alpha-1/13: B1 Interferon alpha-1/13
- adverse reaction (hairy cell leukemia): only a short-term low-grade fever
- effective rate (hairy cell leukemia): 63.64%
- remission rate (hairy cell leukemia): 36.36%
- half-life (half-life in rats): 1.84 h
- adverse reactions compared with other ordinary interferons [4]: milder
- therapeutic effect [4]: certain therapeutic effect
- half-life [3]: 3.27 ± 1.48 h
- specific activity relative to ordinary interferon α2a and 2b [5]: 10%
